Molecular target: PspB-T25 fusion (Y. enterocolitica PspB with Cya-T25 fused to its C-terminus) (Y. enterocolitica)
Assay: two-hybrid

Substance: PspA-T18 fusion (Y. enterocolitica PspA with Cya-T18 fused to its C-terminus) (from UniProt Q9F4H4 1-221) (natural protein)
- beta-galactosidase activity: 1470 Miller units
